Measured values published in patent publication US20210347908A1 (ELPISCIENCE SUZHOU BIOPHARMA, published 2021).
Read-outs that look alike come from different tables or passages of the source.

Key:
[1] = target: T1, full length human SIRPα v1 stably expressed on CHOK1 cells (human, UniProt P78324 31-504); experiment: FACS on CHOK1 cells
T1 construct: whole, on cells; also called CHOK1-human SIRPα v1-1B4 cells; CHOK1-human SIRPα v1
Protocol: Species cross reactivity of the purified hybridoma antibodies against human, cyno and mouse SIRPα was determined by FACS assay using CHOK1-human SIRPα v1-1B4 cells, CHOK1-cyno SIRPα-2A2 cells, and CHOK1-C57BL/6 mouse SIRPα-2.22 cells, which stably expressing SIRPα protein. Briefly the antibodies were incubated with 2×10⁵ target cells at 4° C. for 1 hour. After washing, fluorescence labeled anti-mouse or anti-human IgG 2nd antibody (Life Technologies) was added and incubated at 4° C. for 1 hour. Geometric median fluorescence intensity was detected and EC₅₀ was calculated. In particular, it is noted, in contrast to the other antibodies tested in the same experiment, 060 cannot bind with cyno SIRPα and 035 has cross reactivity against C57BL/6 mouse SIRPα. […]

[2] = target: T1, full length human SIRPα v1 stably …; experiment: FACS on CHOK1 cells; remark: listed apart in the source
Protocol: (§1) Species cross reactivity of the purified hybridoma antibodies against human, cyno and mouse SIRPα was determined by FACS assay using CHOK1-human SIRPα v1-1B4 cells, CHOK1-cyno SIRPα-2A2 cells, and CHOK1-C57BL/6 mouse SIRPα-2.22 cells, which stably expressing SIRPα protein. Briefly the antibodies were incubated with 2×10⁵ target cells at 4° C. for 1 hour. After washing, fluorescence labeled anti-mouse or anti-human IgG 2nd antibody (Life Technologies) was added and incubated at 4° C. for 1 hour. Geometric median fluorescence intensity was detected and EC₅₀ was calculated. In particular, it is noted, in contrast to the other antibodies tested in the same experiment, 060 cannot bind with cyno SIRPα and 035 has cross reactivity against C57BL/6 mouse SIRPα.
(§2) The purified chimeric antibodies were applied for binding specificity analysis and species cross reactivity analysis (refer to methods described in Example 3.3 and 3.4). FIGS. 1A to 1D show binding specificity of anti-SIRPα chimeric antibodies against recombinant proteins of human SIRPα v1 ECD (A), human SIRPα v2 ECD (B), human SIRPβ ECD (C) and human SIRPγ ECD (D) as measured by ELISA analysis.

[3] = target: T2, full length C57BL/6 mouse SIRPα stably expressed on CHOK1 cells (mouse (C57BL/6), UniProt P97797 32-513); experiment: FACS on CHOK1 cells
T2 construct: whole, on cells; also called CHOK1-C57BL/6 mouse SIRPα-2.22 cells
T2 sequence (looked up): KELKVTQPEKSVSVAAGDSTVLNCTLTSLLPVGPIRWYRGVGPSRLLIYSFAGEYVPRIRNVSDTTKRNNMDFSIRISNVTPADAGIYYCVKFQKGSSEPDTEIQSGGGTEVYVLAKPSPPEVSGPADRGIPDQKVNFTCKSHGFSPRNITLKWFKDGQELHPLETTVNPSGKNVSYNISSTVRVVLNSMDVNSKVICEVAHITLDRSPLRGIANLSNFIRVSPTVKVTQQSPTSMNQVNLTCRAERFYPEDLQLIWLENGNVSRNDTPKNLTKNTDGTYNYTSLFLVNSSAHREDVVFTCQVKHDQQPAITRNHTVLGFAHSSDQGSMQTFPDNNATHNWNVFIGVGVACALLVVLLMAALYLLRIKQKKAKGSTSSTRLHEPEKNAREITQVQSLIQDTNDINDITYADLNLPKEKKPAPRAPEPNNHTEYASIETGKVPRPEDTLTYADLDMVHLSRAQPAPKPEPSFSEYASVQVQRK
Protocol: as §1, §2

[4] = target: T3, Fc tagged human SIRPβ ECD recombinant protein (human, UniProt O00241 30-371); experiment: ELISA
T3 construct: range 1-371; cloned range includes the signal peptide; also called hSIRPβ; not shown: human IgG Fc region (hFc) of the pCPC vector
T3 sequence (O00241 30-371 limits assumed, form in doubt): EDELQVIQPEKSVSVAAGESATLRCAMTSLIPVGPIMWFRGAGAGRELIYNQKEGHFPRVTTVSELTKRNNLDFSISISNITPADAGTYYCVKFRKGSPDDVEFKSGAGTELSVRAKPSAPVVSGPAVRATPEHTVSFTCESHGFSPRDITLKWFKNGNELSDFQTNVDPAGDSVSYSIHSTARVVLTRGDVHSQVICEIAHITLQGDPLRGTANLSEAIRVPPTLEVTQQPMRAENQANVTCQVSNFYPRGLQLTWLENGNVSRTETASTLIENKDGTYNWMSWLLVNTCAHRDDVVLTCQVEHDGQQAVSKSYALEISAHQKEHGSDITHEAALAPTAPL
Protocol: (§3) Binding specificity of the purified hybridoma antibodies against SIRP family members was detected by ELISA assay using recombinant proteins of Fc tagged human SIRPα v1 ECD, human SIRPα v2 ECD, human SIRPβ ECD and human SIRPγ ECD. Briefly the antibodies were incubated with ELISA microplate coated antigens at 37° C. for 1 hour. After washing, horseradish peroxidase (HRP) labeled anti-mouse or anti-human IgG 2nd Ab (Sigma) was added and incubated at 37° C. for 1 hour. Then, 100 μl/well of TMB solution (Biotechnology) was added. After incubation for 15 minutes at room temperature, the reaction was stopped by the addition of 50 μl of 1N HCl. OD 450 nm was read and EC₅₀ was calculated. Other than 060 and HEFLB, all of the antibodies as tested can bind with both human SIRPα v1 and SIRPα v2. 060 and HEFLB can bind with human SIRPα v1 but not v2. Other than 055, all of the antibodies as tested can bind with human SIRPβ. In comparison with other known anti-SIRPα antibodies, only 022, 035 and 050 can bind with human SIRPγ weakly.
as §2

[5] = target: T4, Fc tagged human SIRPα v1 ECD recombinant protein (human, UniProt P78324 31-370); experiment: ELISA
T4 construct: range 1-370; cloned range M1-R370 includes the signal peptide; also called hSIRPα V1; not shown: human IgG Fc region (hFc) of the pCPC vector
T4 sequence (P78324 31-370 limits assumed): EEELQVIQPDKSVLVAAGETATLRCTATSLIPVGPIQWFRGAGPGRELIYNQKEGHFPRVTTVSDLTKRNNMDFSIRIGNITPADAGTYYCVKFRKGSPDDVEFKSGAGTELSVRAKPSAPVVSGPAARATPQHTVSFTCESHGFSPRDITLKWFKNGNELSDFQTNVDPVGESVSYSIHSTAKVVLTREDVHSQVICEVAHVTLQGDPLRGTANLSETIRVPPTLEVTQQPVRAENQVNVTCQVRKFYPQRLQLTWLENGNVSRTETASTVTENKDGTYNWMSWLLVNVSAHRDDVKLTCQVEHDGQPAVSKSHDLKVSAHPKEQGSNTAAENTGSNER
Protocol: as §3, §2

[6] = target: T1, full length human SIRPα v1 stably …; experiment: FACS on CHOK1 cells; remark: listed apart in the source
[7] = target: T5, biotin labeled soluble human SIRPα v1 ECD recombinant protein (human, UniProt P78324 31-373, biotin labeled); experiment: competitive ELISA; competitor 055
T5 construct: extracellular domain
T5 sequence (P78324 31-373): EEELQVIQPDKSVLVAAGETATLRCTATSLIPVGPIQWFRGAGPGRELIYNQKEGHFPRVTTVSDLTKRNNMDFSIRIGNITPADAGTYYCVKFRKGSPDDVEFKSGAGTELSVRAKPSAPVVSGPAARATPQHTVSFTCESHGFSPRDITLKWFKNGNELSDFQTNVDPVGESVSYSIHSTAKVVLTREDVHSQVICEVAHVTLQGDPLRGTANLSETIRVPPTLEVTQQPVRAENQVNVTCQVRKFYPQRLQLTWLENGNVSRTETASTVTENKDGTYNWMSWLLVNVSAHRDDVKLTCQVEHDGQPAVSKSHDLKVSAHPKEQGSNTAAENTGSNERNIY
How it was run: (§4)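 Ab coated on plate; excess competitor Ab + biotin-hSIRPα v1 ECD co-incubated; wash; HRP-SA 37 °C 1 h; TMB 15 min RT; 1N HCl stop; OD450; competition ratio calc. Mutual competition = similar epitope.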

[8] = target: T5, biotin labeled soluble human SIRPα v1 …; experiment: competitive ELISA; competitor 035
How it was run: as §4

[9] = target: T5, biotin labeled soluble human SIRPα v1 …; experiment: competitive ELISA; competitor 29-AM4-5
How it was run: as §4

[10] = target: T4, Fc tagged human SIRPα v1 ECD …; experiment: ELISA; remark: listed apart in the source
Protocol: as §3, §2

T1 sequence (P78324 31-504): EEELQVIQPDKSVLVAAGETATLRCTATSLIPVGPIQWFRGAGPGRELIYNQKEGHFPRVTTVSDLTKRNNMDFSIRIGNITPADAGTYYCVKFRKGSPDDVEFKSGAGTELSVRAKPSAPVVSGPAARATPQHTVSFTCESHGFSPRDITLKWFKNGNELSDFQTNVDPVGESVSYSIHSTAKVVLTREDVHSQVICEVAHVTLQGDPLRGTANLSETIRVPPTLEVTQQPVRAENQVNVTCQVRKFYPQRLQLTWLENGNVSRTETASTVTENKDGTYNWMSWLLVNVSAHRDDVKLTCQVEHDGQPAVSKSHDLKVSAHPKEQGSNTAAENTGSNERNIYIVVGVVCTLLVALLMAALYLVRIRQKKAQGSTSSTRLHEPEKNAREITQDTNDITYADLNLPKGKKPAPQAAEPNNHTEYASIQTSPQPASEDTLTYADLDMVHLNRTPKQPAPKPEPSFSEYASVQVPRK

B1: reference antibody 29-AM4-5 (antibody, V domains shown)
VH: EVQLVESGGGLVQPGGSLRLSCAASGFNISYYFIHWVRQAPGKGLEWVASVYSSFGYTYYADSVKGRFTISADTSKNTAYLQMNSLRAEDTAVYYCARFTFPGLFDGFFGAYLGSLDYWGQGTLVTVSS
VL: DIQMTQSPSSLSASVGDRVTITCRASQSVSSAVAWYQQKPGKAPKLLIYSASSLYSGVPSRFSGSRSGTDFTLTISSLQPEDFATYYCQQAVNWVGALVTFGQGTKVEIK
EC50 [1]: 13.6 nM
EC50 [2]: 13.6 nM
binding result [3]: no binding (tested: 10 nM)
EC50 [4]: 0.08 nM
EC50 [5]: 0.11 nM
EC50 [6]: 13.6 nM
% Competition [7]: 0%
% Competition [8]: 98%
% Competition [9]: 91%
EC50 [10]: 0.11 nM
